In PMC4255728:

Legend:
[1] = target: Saccharomyces cerevisiae cytochrome c oxidase, 5A isoenzyme (strain WTCOX5A) (S. cerevisiae) (UniProt P00401)
[2] = target: Saccharomyces cerevisiae cytochrome c oxidase, 5B isoenzyme (strain ΔROX1ΔCOX5A, COX5B under its own promoter) (S. cerevisiae) (UniProt P00401)
[3] = target: Saccharomyces cerevisiae cytochrome c oxidase, 5B isoenzyme (strain COX5B, COX5B downstream of the COX5A promoter) (S. cerevisiae) (UniProt P00401)

Substance	Km for cyt c (low-affinity phase), steady-state oxygen consumption of mitos, 1.25-350 μM cyt c, 25°C, pH 6.6, 50 mM KCl, 0.05% DDM [1]	Km for cyt c (low-affinity phase), steady-state oxygen consumption of mitos, 1.25-350 μM cyt c, 25°C, pH 6.6, 50 mM KCl, 0.05% DDM [2]	Km for cyt c (low-affinity phase), steady-state oxygen consumption of mitos, 1.25-350 μM cyt c, 25°C, pH 6.6, 50 mM KCl, 0.05% DDM [3]	Km for cyt c (low-affinity phase of biphasic kinetics), steady-state oxygen consumption of mitos, 1.25-350 μM cyt c, 25°C, pH 6.6, 50 mM KCl, 0.05% DDM [1]	Km for cyt c (low-affinity phase of biphasic kinetics), steady-state oxygen consumption of mitos, 1.25-350 μM cyt c, 25°C, pH 6.6, 50 mM KCl, 0.05% DDM [2]	Km for cyt c (low-affinity phase of biphasic kinetics), steady-state oxygen consumption of mitos, 1.25-350 μM cyt c, 25°C, pH 6.6, 50 mM KCl, 0.05% DDM [3]
Horse heart cytochrome c (from UniProt P00004 1-105) (natural protein)	13.9 μM	10.8 μM	14.5 μM	–	–	–
Yeast iso-1 cytochrome c (isoform-1) (from UniProt P00044 1-109) (natural protein)	–	–	–	29.8 μM	41.2 μM	39.5 μM
Yeast iso-2 cytochrome c (isoform-2) (from UniProt P00045 1-113) (natural protein)	–	–	–	23.9 μM	47.8 μM	59.5 μM
